# The Immune Epitope Database (IEDB)
# How the values were obtained:
# Experiment in all cases: IEDB peptide-MHC binding, purified MHC/competitive/radioactivity; filed as Kd, often an IC50 or EC50 that approximates it; ≥ and ≤ were set here for values at or beyond the usual limits of such assays
# [1] = molecular target: HLA-A*02:02; settings: source organism: Vaccinia virus WR
# [2] = molecular target: HLA-A*02:06
# [3] = molecular target: HLA-A*02:03
# [4] = molecular target: HLA-A*33:01
# [5] = molecular target: HLA-A*31:01
# [6] = molecular target: HLA-A*03:01
# [7] = molecular target: HLA-A*11:01
# [8] = molecular target: HLA-A*68:01
# [9] = source organism: Vaccinia virus WR
# [10] = source organism: Dengue virus 2 Jamaica/1409/1983
# [11] = source organism: Dengue virus 1 Brazil/97-11/1997
# [12] = source organism: Mopeia Lassa virus reassortant 29
# [13] = source organism: Mammarenavirus juninense
# [14] = source organism: SARS coronavirus Tor2
# [15] = source organism: Triticum aestivum
# [16] = source organism: Mammarenavirus brazilense
Sequence,"Kd [4, 9]","Kd [5, 9]","Kd [6, 9]","Kd [7, 9]","Kd [8, 9]",also measured
AADLTQIFEV,–,–,–,–,–,"Kd [1]: 1240 nM; Kd [2, 9]: 10.9 nM; Kd [3, 9]: 404 nM"
AIKQYGDIDL,–,–,–,–,–,"Kd [1]: ≥ 23400 nM; Kd [2, 9]: ≥ 69800 nM; Kd [3, 9]: ≥ 46400 nM"
ALEPRKEIDV,–,–,–,–,–,"Kd [1]: 8370 nM; Kd [2, 9]: ≥ 63300 nM; Kd [3, 9]: 11200 nM"
ALINLVQYRI,–,–,–,–,–,"Kd [1]: 8.32 nM; Kd [2, 9]: 417 nM; Kd [3, 9]: 81.6 nM"
AMHTALTGA,–,–,–,–,–,"Kd [3, 10]: 15.1 nM"
AVLDDGIYRI,–,–,–,–,–,"Kd [2, 11]: 10.5 nM"
FVFDRPLPV,–,–,–,–,–,Kd ([2]; source organism: Homo sapiens): 2.38 nM
GLFGKGGIV,–,–,–,–,–,"Kd [3, 10]: 11 nM"
GLTADARLL,–,–,–,–,–,Kd ([3]; source organism: Homo sapiens): 362 nM
GVVTTSGTYV,–,–,–,–,–,"Kd [2, 11]: 665 nM"
LLAIGCYSQV,–,–,–,–,–,"Kd [3, 10]: 8.28 nM"
LSLSNLDFR,675 nM,21.7 nM,≥ 78000 nM,349 nM,300 nM,–
LSPAHLINK,≥ 35800 nM,18600 nM,208 nM,39.4 nM,16300 nM,–
LTKFVAAALH,–,–,–,–,–,"Kd [4, 12]: 5610 nM; Kd [5, 12]: 694 nM; Kd [6, 12]: 16000 nM; Kd [7, 12]: 5660 nM; Kd [8, 12]: 164 nM"
LVVISVIFY,≥ 66100 nM,10700 nM,≥ 24400 nM,≥ 36700 nM,5480 nM,–
MFEQYFIYTY,5690 nM,4510 nM,18.6 nM,2140 nM,8110 nM,–
MFLTSVINR,0.841 nM,1.16 nM,355 nM,283 nM,18.8 nM,–
MSTYSDICSK,≥ 70000 nM,≥ 70000 nM,≥ 70100 nM,≥ 69800 nM,≥ 70200 nM,–
MTSWLDFSH,–,–,–,–,–,"Kd [4, 13]: 13600 nM; Kd [5, 13]: 176 nM; Kd [6, 13]: 548 nM; Kd [7, 13]: 116 nM; Kd [8, 13]: 3.36 nM"
MVMCGGSLY,–,–,–,–,–,"Kd [4, 14]: 4620 nM; Kd [5, 14]: 70.4 nM; Kd [6, 14]: 41.9 nM; Kd [7, 14]: 73.9 nM; Kd [8, 14]: 22.6 nM"
NLKAMLYIIR,133 nM,4840 nM,8530 nM,10900 nM,209 nM,–

Sequence,"Kd [4, 9]","Kd [5, 9]","Kd [6, 9]","Kd [7, 9]","Kd [8, 9]",also measured
NSQIFNIISY,10600 nM,1320 nM,1080 nM,5090 nM,441 nM,–
NTIDKSSPLY,≥ 70000 nM,≥ 70000 nM,7970 nM,1660 nM,85.4 nM,–
NVTSMEELAR,254 nM,705 nM,5040 nM,227 nM,2.82 nM,–
PAAEFRRVAH,–,–,–,–,–,"Kd [4, 13]: ≥ 24400 nM; Kd [5, 13]: 9340 nM; Kd [6, 13]: ≥ 70000 nM; Kd [7, 13]: ≥ 69700 nM; Kd [8, 13]: ≥ 70100 nM"
PADCFLVKLK,17100 nM,≥ 31200 nM,2910 nM,1510 nM,≥ 22400 nM,–
PIINTHSFY,≥ 77700 nM,≥ 77900 nM,≥ 78000 nM,≥ 77900 nM,≥ 77700 nM,–
PLLCTLNKSH,–,–,–,–,–,"Kd [4, 13]: ≥ 70000 nM; Kd [5, 13]: ≥ 70000 nM; Kd [6, 13]: ≥ 70000 nM; Kd [7, 13]: ≥ 69700 nM; Kd [8, 13]: ≥ 70100 nM"
PLNEGVMAV,–,–,–,–,–,Kd ([3]; source organism: Dengue virus 3 Martinique/1243/1999): 21.5 nM
QITTDDLVK,3750 nM,207 nM,≥ 38900 nM,803 nM,436 nM,–
QLLQELCCQH,–,–,–,–,–,"Kd [4, 15]: ≥ 70000 nM; Kd [5, 15]: ≥ 70000 nM; Kd [6, 15]: ≥ 27100 nM; Kd [7, 15]: ≥ 69800 nM; Kd [8, 15]: 17400 nM"
QMDSMEALEY,≥ 70000 nM,≥ 70000 nM,1710 nM,755 nM,11800 nM,–
QTVDFTDCR,5810 nM,722 nM,≥ 35500 nM,348 nM,1.57 nM,–
RLSILSKDK,12900 nM,10700 nM,613 nM,1210 nM,1080 nM,–
RTMPNESRVK,≥ 70000 nM,123 nM,25.1 nM,4.57 nM,1120 nM,–
SLGLILLKIV,–,–,–,–,–,Kd ([3]; source organism: Dengue virus 4 Dominica/814669/1981): 14.7 nM
SMGFKVTTRR,747 nM,22.1 nM,97.2 nM,1050 nM,213 nM,–
SMLTNAISSR,2330 nM,117 nM,505 nM,258 nM,218 nM,–
SMTIREFPR,1.94 nM,0.164 nM,14800 nM,599 nM,200 nM,–
SNSKEIPSFR,–,–,–,–,–,"Kd [4, 16]: 540 nM; Kd [5, 16]: 650 nM; Kd [6, 16]: ≥ 33300 nM; Kd [7, 16]: 1880 nM; Kd [8, 16]: 315 nM"
SQVNPLTLTA,–,–,–,–,–,"Kd [2, 11]: 167 nM"
